The record followed here is publication doi:10.1101/2020.04.28.064113 (bioRxiv, 2020).

This assay concerns the target Ubiquitin (wild-type), 15N isotopically labelled (UniProt P0CG47 1-76). In words: NMR titration.

On to CMQIFVKTLTGKTITLEVC (disulphide bridge between the two terminal cysteines) [stapled Cys-Ubq3-Cys peptide (stapled xenonucleus)], for which the binding result was “binds”.
